Molecular target: truncated NpSRII/NpHtrII137 complex (Natronomonas pharaonis) (UniProt P42196)
Assay: SAXS; detergent-solubilised (DDM) complex, peak fractions after gel filtration; low salt (150 mM NaCl); 0.57 mg/ml full-length and 0.78 mg/ml truncated complex; BM29 (ESRF); curves fitted with atomistic dimer models with a detergent belt (MEMPROT, CRYSOL3)

truncated NpSRII/NpHtrII137 complex, sequence (P42196 whole entry, the tested form may be a part): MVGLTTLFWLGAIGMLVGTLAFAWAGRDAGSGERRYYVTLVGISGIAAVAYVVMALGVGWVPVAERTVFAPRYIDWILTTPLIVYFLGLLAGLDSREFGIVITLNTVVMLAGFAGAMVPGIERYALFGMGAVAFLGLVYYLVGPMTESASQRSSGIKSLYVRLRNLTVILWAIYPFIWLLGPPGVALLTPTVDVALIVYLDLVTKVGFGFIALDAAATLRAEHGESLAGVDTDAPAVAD
truncated NpSRII/NpHtrII137 complex, sequence (P42259 1-136): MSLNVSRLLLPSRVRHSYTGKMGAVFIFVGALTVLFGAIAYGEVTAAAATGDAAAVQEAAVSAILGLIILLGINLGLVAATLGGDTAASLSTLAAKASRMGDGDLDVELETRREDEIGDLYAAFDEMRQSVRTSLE

- stoichiometry N: 2
Substance: truncated NpSRII/NpHtrII137 complex (from UniProt P42196 1-239; P42259 1-136)

From PMC8144572
